Measurements: patent US20060134087A1, “ITI-D1 Kunitz domain mutants as hNE inhibitors” (Dyax Corp., priority 1988, published 2006)

Assays:
[1] = target: T1, hNE (Homo sapiens, UniProt P08246); assay: Kinetic on-rate of inhibitors reacting with hNE (progressive inhibition); type: biochemical; conditions: for kon: [hNE] = 8.47 × 10^−10 molar; for koff: calculated from koff = KD × kon
T1 sequence (P08246 30-267): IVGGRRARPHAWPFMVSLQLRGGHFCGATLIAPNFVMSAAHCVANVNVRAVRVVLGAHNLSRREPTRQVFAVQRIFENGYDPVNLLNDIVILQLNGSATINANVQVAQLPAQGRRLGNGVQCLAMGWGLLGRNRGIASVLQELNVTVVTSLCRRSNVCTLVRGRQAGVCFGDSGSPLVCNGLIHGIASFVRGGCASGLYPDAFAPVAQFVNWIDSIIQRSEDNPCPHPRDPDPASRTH
Method: The kinetic on-rates for the inhibitors reacting with hNE (kon) were determined from measurements of progressive inhibition of substrate hydrolytic activity by hNE following addition of inhibitor. For these experiments, a known concentration of inhibitor was added to a solution of hNE (0.847 nM) and substrate (25 μM) in 2 ml of reaction buffer in a plastic fluorescence cuvette. The change in fluorescence was recorded continuously following addition of the inhibitor. […] The enzymatic rate at selected times following addition of the inhibitor was determined from the slope of the tangent to the fluorescence time course at that time.
The kinetic constant kon for EPI-HNE-2 reacting with hNE was determined as follows. EPI-HNE-2 at 1.3 nM was added to buffer containing 0.867 nM hNE (I:E=1.5:1) at time 0. Measured percent residual activity was recorded as a function of time after addition of inhibitor. A least-squares fit program was used to obtain the value of kon=4.0×10^6 M^−1s^−1.
The kinetic off rate, koff, is calculated from the measured values of Ki and kon as: […] The values from such measurements are included in Table 30. The EPI-HNE proteins are small, high affinity, fast acting inhibitors of hNE. B. Specificity.

[2] = target: T1, hNE; assay: Resistance to oxidative inactivation by Chloramine-T, residual hNE-inhibition activity; type: physicochemical; conditions: for Percent Residual hNE-Inhibitory Activity: 20 minutes at RT
Method: At the end of the incubation period, the oxidation reactions were quenched by adding methionine to a final concentration of 4 mM. After a further 10 minute incubation, the quenched reactions were diluted and assayed for residual inhibitor activity in our standard hNE-inhibition assay.
Inhibitors were incubated in the presence of Chloramine-T at the molar ratios indicated for 20 minutes at RT. Oxidation reactions were quenched by adding methionine to a final concentration of 4 mM. Residual hNE-inhibition activity remaining in the quenched reactions is shown as a percentage of the activity observed with no added oxidant.

[3] = target: T1, hNE; assay: pH stability, residual hNE inhibitory activity; type: physicochemical; conditions: 37° C., 18 hours; for pH stability: pH 1 to pH 10, 1 μM; for Percent Residual hNE Inhibitory Activity: 1 μM protein
Method: The stability of the proteins to exposure to pH conditions in the range of pH 1 to pH 10 was assessed by maintaining the inhibitors in buffers of defined pH at 37° C. for 18 hours and determining the residual hNE inhibitory activity in the standard hNE-inhibition assay. Proteins were incubated at a concentration of 1 μM. The buffers shown in Table 4 were formulated as described (STOL90) and used in the pH ranges indicated: […]
Proteins were incubated at 37° C. for 18 hours in buffers of defined pH (see text). In all cases protein concentrations were 1 μM. At the end of the incubation period, aliquots of the reactions were diluted and residual hNE-inhibition activity determined.

[4] = target: T1, hNE; assay: Temperature stability, residual inhibitory activity for hNE; type: physicochemical; design: Residual hNE Inhibitory Activity: unit not given here; conditions: for Residual hNE Inhibitory Activity: 18 hours, pH 7.0, 1 μM protein; for temperature below which full inhibitory activity is maintained: thirty minutes, 1 μM, phosphate buffer pH=7
Method: The stability of EPI-HNE proteins to temperatures in the range 0° C. to 95° C. was assessed by incubating the inhibitors for thirty minutes at various temperatures and determining residual inhibitory activity for hNE. In these experiments, protein concentrations were 1 μM in phosphate buffer at pH=7. As is shown in Table 40, the four inhibitors are quite temperature stable.
Proteins were incubated at the stated temperature for 18 hours in buffer at pH 7.0. In all cases protein concentrations were 1 μM. At the end of the incubation period, aliquots of the reactions were diluted and residual hNE-inhibition activity determined.

[5] = target: T1, hNE; assay: Storage stability of purified inhibitor stock solutions; type: physicochemical
Method: Residual ammonium sulfate was removed from the EPI-HNE-2 preparation by ion exchange chromatography. The solution from the ammonium sulfate precipitation step was applied to a strong cation-exchange column (50 ml bed volume Macroprep 50S) (Bio-Rad Laboratories, Inc, Hercules, Calif.) previously equilibrated with 10 mM NaCitrate, pH=3.5. After loading, the column was washed with 300 ml of 10 mM NaCitrate, pH=3.5. EPI-HNE-2 was then batch-eluted from the column with 300 ml of 50 mM NH4OAc, pH=6.2. Fractions containing EPI-HNE-2 activity were pooled and the resulting solution was lyophilized. The dried protein powder was dissolved in 50 ml dH2O and the solution was passed through a 0.2μ filter (#4192, Gelman Sciences, Ann Arbor, Mich.). The concentration of the active inhibitor in the final stock solution was determined to be 2 mM (13.5 mg/ml).
The lyophilized protein powder was dissolved in 26 ml dH2O and the solution was passed through a 0.2μ filter (#4912, Gelman Sciences, Ann Arbor, Mich.). […] EPI-HNE-3 stored in water solution (without any buffering) deteriorated when kept at 4° C.

[6] = Molar Ratio CHL-T:Inhibitor 1.0
[7] = Molar Ratio CHL-T:Inhibitor 10.
[8] = Molar Ratio CHL-T:Inhibitor .50

Substance	kon [1]	koff [1]	Percent Residual hNE-Inhibitory Activity ([2]; Molar Ratio CHL-T:Inhibitor 0)	Percent Residual hNE-Inhibitory Activity [2, 6]	Percent Residual hNE-Inhibitory Activity [2, 7]	Percent Residual hNE-Inhibitory Activity [2, 8]	pH stability [3]	Percent Residual hNE Inhibitory Activity ([3]; Incubation pH 1.0)	Percent Residual hNE Inhibitory Activity ([3]; Incubation pH 2.0)	Percent Residual hNE Inhibitory Activity ([3]; Incubation pH 3.0)	Percent Residual hNE Inhibitory Activity ([3]; Incubation pH 4.0)	Percent Residual hNE Inhibitory Activity ([3]; Incubation pH 5.5)	Percent Residual hNE Inhibitory Activity ([3]; Incubation pH 7.0)	Percent Residual hNE Inhibitory Activity ([3]; Incubation pH 8.5)	Percent Residual hNE Inhibitory Activity ([3]; Incubation pH 10.0)	Residual hNE Inhibitory Activity ([4]; Temperature 0 ° C.)	Residual hNE Inhibitory Activity ([4]; Temperature 23 ° C.)	Residual hNE Inhibitory Activity ([4]; Temperature 37 ° C.)	Residual hNE Inhibitory Activity ([4]; Temperature 52 ° C.)	Residual hNE Inhibitory Activity ([4]; Temperature 65 ° C.)	further results
EPI-HNE-3: ITI-D2(3-58) with R15I, I18F, Q19P, L20R; SEQ ID NO 026 (AACNLPIVRGPCIAFFPRWAFDAVKGKCVLFPYGGCQGNGNKFYSEKECREYCGVP; Epi-HNE-3)	8.0 10^6/M/s	50. 10^−6/s	100%	97%	97%	97%	stable when incubated at low pH, but showed some loss of activity at high pH	97%	97%	100%	102%	99%	103%	68%	27%	96	105	99	100	87	Percent Residual hNE-Inhibitory Activity ([2]; Molar Ratio CHL-T:Inhibitor 3.0): 97%; Percent Residual hNE-Inhibitory Activity ([2]; Molar Ratio CHL-T:Inhibitor 5.0): 94%; Percent Residual hNE-Inhibitory Activity ([2]; Molar Ratio CHL-T:Inhibitor 30.): 100%; Percent Residual hNE-Inhibitory Activity ([2]; Molar Ratio CHL-T:Inhibitor 50.): 94%; hNE-inhibition activity after exposure to Chloramine-T ([2]; all molar ratios tested (up to 50:1 for EPI-HNE-3 and EPI-HNE-4)): retain essentially complete hNE-inhibition activity; Percent Residual hNE Inhibitory Activity ([3]; Incubation pH 6.0): 103%; Percent Residual hNE Inhibitory Activity ([3]; Incubation pH 6.5): 99%; Percent Residual hNE Inhibitory Activity ([3]; Incubation pH 7.5): 87%; Percent Residual hNE Inhibitory Activity ([3]; Incubation pH 8.0): 84%; Percent Residual hNE Inhibitory Activity ([3]; Incubation pH 9.4): 44%; Residual hNE Inhibitory Activity ([4]; Temperature 80 ° C.): 79; Residual hNE Inhibitory Activity ([4]; Temperature 93 ° C.): 57; temperature below which full inhibitory activity is maintained [4]: below 65 °C; activity after storage ([5]; stock solution 250 μM, −70° C., more than six months): no loss of activity; material active after storage ([5]; water solution without buffering, 4° C., five months): about 70%
EPI-HNE-2: EPI-HNE-1 with four additional residues EAEA at the amino terminus, SEQ ID NO 008	4.0 10^6/M/s	20. 10^−6/s	100%	102%	98%	102%	stable at all pH values tested	98%	97%	101%	101%	99%	103%	104%	102%	101	103	97	101	95	Percent Residual hNE-Inhibitory Activity ([2]; Molar Ratio CHL-T:Inhibitor 0.25): 94%; Percent Residual hNE-Inhibitory Activity ([2]; Molar Ratio CHL-T:Inhibitor 1.5): 95%; Percent Residual hNE-Inhibitory Activity ([2]; Molar Ratio CHL-T:Inhibitor 2.0): 102%; Percent Residual hNE-Inhibitory Activity ([2]; Molar Ratio CHL-T:Inhibitor 4.0): 95%; Residual hNE Inhibitory Activity ([4]; Temperature 80 ° C.): 101; Residual hNE Inhibitory Activity ([4]; Temperature 93 ° C.): 88; temperature below which full inhibitory activity is maintained [4]: below 90 °C; activity after storage ([5]; stock solution 2 mM, 4° C. and −70° C., more than 11 months): no loss in activity
